In publication PMC11623648 one finds stoichiometry N data, which are given here for 1 substance.

The experiment has as its target Integrin αIIbβ3 (human (endogenous in platelets)) (UniProt P05106). Briefly: cryo-EM structure.

The term stoichiometry N denotes a count of units in the complex or per binding partner. As to “Integrin αIIbβ3 (from UniProt P05106 27-788) (complex)”, the stoichiometry N stood at 2.
